Our source for the protein stability index values is the supplement of paper PMC10567573.

This series can be described thus: protein stability index of a GFP-peptide fusion (GPS, HEK-293T) (PSI 1-6); higher = more stable.
The mark [1] stands for this setting: treatment: DMSO, c terminus: a fixed tail appended.
Where [2] appears, read: treatment: MLN4924 1 uM, 8 h, c terminus: a fixed tail appended.

± gives the standard deviation.
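Also: 24-mer peptide tiles fused after GFP, lentivirally expressed, FACS-sorted into six equal bins by GFP/DsRed ratio, decoded by Illumina sequencing, PSI is the read-weighted mean bin number.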

For the sequence VASMVLGECRQMSSSSQIGNDSFQ [CLCN6], the protein stability index was found to be 2.87 ± 0.32 under setting [1] and 2.67 ± 0.27 under setting [2].
On the same counts, the results for TGGLLPIKRTIRVLDVNNQSFREQ [NET1] are 2.92 ± 0.13 and 3.03 ± 0.24.
For ILTEETEVKGTLEGDVCGVEPPGP [PBXIP1] the same measures were 5.14 ± 0.39 and 5.42 ± 0.24.
For FRLVEKSCPEGDASECPQATNAKD [PPEF2] the same measures were 5.11 ± 0.21 and 5.41 ± 0.28.
Turning to MRARDSVYHIECFRCSVCSRQLLP [ISL2], the protein stability index runs as follows: under setting [1], 2.2 ± 0.24; under setting [2], 2.22 ± 0.35.
For FNYRYFEVEEADGNKQWWFGGGCD [CPOX] the same measures were 2.48 ± 0.23 and 2.58 ± 0.28.
On the same counts, the results for IPRGFPTIDMGPQLKVVERTRTAT [PTPRD] are 3.92 ± 0.24 and 3.68 ± 0.37.
For KRCIVILREIPETTPIEEVKGLFK [LARP4] the same measures were 2.23 ± 0.46 and 1.93 ± 0.47.
Take NNLEPILEGYISNLRKQLETLSGD [KRT71]: the protein stability index stood at 3.07 ± 0.26 under setting [1] and 3.18 ± 0.35 under setting [2].
For SQQQNMMQDYVRTGTYQRAILQNH [CARM1] the same measures were 3.21 ± 0.27 and 3.12 ± 0.23.
For the sequence GRHHSQSTEVQAHPYSTTFQESAS [TEKT4], the protein stability index was 4.31 ± 0.2 under setting [1] and 4.46 ± 0.3 under setting [2].
For SNFETYPENDWDTAAPVPQKDLEI [PRKX] the same measures were 5.03 ± 0.12 and 5.15 ± 0.2.
For LVAKELGQTGTRLTPADKAEHMKR [AUP1] the same measures were 4.41 ± 0.4 and 4.29 ± 0.21.
For RANRGILQQERQRLGQRQPPPSEP [DNAJC4] the same measures were 4.79 ± 0.22 and 4.79 ± 0.087.
The sequence RIIYQNKCMRNGPNALIASLALGD [EDNRA] showed a protein stability index under setting [1] of 2.48 ± 0.18 and a protein stability index under setting [2] of 2.26 ± 0.21.
On the same counts, the results for GPVRPAIPPPLSSVYAWGGGLGTP [NEK8] are 3.18 ± 0.2 and 3.18 ± 0.27.
For KSSILTRAGEQRKRSQSMKSYPSS [CLCN6], the protein stability index reads like this: under setting [1], 4.46 ± 0.25; under setting [2], 4.6 ± 0.18.
For MLLDIKTRLEQEIATYRSLLEGQD [KRT15] the same measures were 2.9 ± 0.34 and 3.07 ± 0.34.
For VSQWYELVVFTASMEIYGSAVADK [CTDNEP1] the same measures were 3.26 ± 0.36 and 3.17 ± 0.48.
Turning to EPGGYDSSSTLMSSELETTSFFDS [DVL3], the protein stability index reads like this: under setting [1], 4.96 ± 0.31; under setting [2], 4.96 ± 0.21.
On to MEHLIYGEPRKLLTQDWVQENYLE [MAGEA10], for which the protein stability index is, setting by setting: under setting [1], 3.41 ± 0.35; under setting [2], 3.47 ± 0.3.
As to FDMSRYSSSGYSSAEINQDLNIQL [FAM219A], the protein stability index came out at 3.06 ± 0.27 under setting [1] and 3.12 ± 0.18 under setting [2].
On the same counts, the results for MYASSAPPSEPVPSLEDISCNTWP [TBX5] are 3.95 ± 0.17 and 3.97 ± 0.22.
For FPEFCSSPSPPVEVKIEEPVSMEM [INTS3] the same measures were 4.65 ± 0.32 and 4.82 ± 0.27.
On the same counts, the results for ERGSMKTHFNTAQGFRTVLELVIN [OAS1] are 2.13 ± 0.43 and 2.5 ± 0.56.
For TPMTIPEFFRESVNRFGTYPALAS [ACSBG2], the protein stability index reads like this: under setting [1], 2.6 ± 0.41; under setting [2], 2.78 ± 0.14.
For RDYIHSLKLLNVLEEYITDEQKEE [FAM9B] the same measures were 3.37 ± 0.38 and 3.52 ± 0.34.
As to QLQSMPSRELASMNLDIVDLLKKA [RHOBTB3], the protein stability index was 3.46 ± 0.35 under setting [1] and 3.79 ± 0.47 under setting [2].
On the same counts, the results for LRELCRLWLRPETHTKEQILELVV [ZNF24] are 2.44 ± 0.21 and 2.11 ± 0.34.
On to RPRKLYKHSSTSSRIAKGGVDHTK [BTBD10], for which the protein stability index turned out to be 4.06 ± 0.21 under setting [1] and 4.12 ± 0.23 under setting [2].
On the same counts, the results for CEVWACNLDEEMKKIRQVIRKYNY [CNOT7] are 2.28 ± 0.19 and 2.23 ± 0.14.
On the same counts, the results for DMELHRMSRMQSKEYPVVPRSTVR [TBX5] are 4.35 ± 0.07 and 4.33 ± 0.15.
With PTKDRLEGLLAFKEKRPPRYKGE [AUH], the protein stability index (treatment: DMSO, c terminus: native) stood at 2.11 ± 0.31 and the protein stability index (treatment: MLN4924 1 uM, 8 h, c terminus: native) came to 4.4 ± 0.1.
VELVNAACNFEPHESFFSLFSDPR [ZER1] yielded a protein stability index under setting [1] of 2.45 ± 0.13 and a protein stability index under setting [2] of 2.54 ± 0.2.
For MLQATAEANNLAAAASAKDIYYNN [ATL3] the same measures were 3.15 ± 0.18 and 3.44 ± 0.38.
In the case of LALGPGESLPHRLSCLGQQQQEPP [PLAGL1], the protein stability index is 4.145 ± 0.038 under setting [1] and 4.23 ± 0.15 under setting [2].
For DHMREAGDVCYADVYRDGTGVVEF [SRSF1] the same measures were 3.15 ± 0.28 and 3.18 ± 0.23.
With GLPAQQVGPWLGQLQELLHHCDDH [RSAD1], the protein stability index amounted to 3.6 ± 0.34 under setting [1] and 3.61 ± 0.29 under setting [2].
For YECTVCKKRFTRRSHLIGHQRTHS [ZNF449] the same measures were 4.86 ± 0.39 and 5.05 ± 0.24.
On the same counts, the results for ISESMAACTRSLLGDPPPLLTLPR [HDAC6] are 2.98 ± 0.14 and 3.29 ± 0.41.
Take PQRPRSAPRTSSCAERLQSEEQVS [FCHO1]: the protein stability index reads like this: under setting [1], 4.85 ± 0.39; under setting [2], 4.9 ± 0.24.
